According to US20140206628A1 (University of Washington, published 2014):
Where two headings read alike, the source gives them in different places.

How the values were obtained:
[1] = target: T1, A/South Carolina/1/1918 (H1N1) hemagglutinin ectodomain, biotinylated (Influenza A virus A/South …); assay: yeast surface display titration
[2] = target: T1, A/South Carolina/1/1918 (H1N1) …; assay: yeast surface display titration; remark: listed apart in the source

B1: HB36.4_s4_E11 (designed binder)
chain: MSNAMDGQQLNRLLLEWIGAWDPFGLGKDAYDVEADAVLKAVYETNSAFDLAMRIHWIYNFAFKRKIPFVHAQKLARRLLELKQAASSPLP
binding result [1]: binds

B2: HB80.3_s4_E94 (designed binder)
chain: ASTRGSGRPWKFSENVAFELALYFTNKDTPDRWAKVARYVKGRTPEEVKKHYE
binding result [2]: binds

B3: HB80.3_s4_E82 (designed binder)
chain: MASTRGSGRPWKFSENVAFEIALSFTNKDTPDRWAKVARYVRGRTPEEVKKHYE
binding result [2]: binds
